Several values for one entry are separate records, joined by “and”; a condition that tells them apart may be missing. Equal values may be shown once. Read-outs that look alike come from different tables or passages of the source.
Columns and labels:
30S subunit (30S IC) = experiment: 30S IC formation by MST, mRNA titration; type: binding, Escherichia coli; conditions: for MST Average / MST Replicates (a.u.): Fig 3B; for Kd: Fig 3C, from mRNA titration of 30S IC formation; for 30S IC formation MST signal, Average / 30S IC formation MST signal, replicates: Fig 6D
Description: Fig 1 Bacterial stringent response and experimental approach. (A) Schematics representing the onset of stringent response, (p)ppGpp accumulation, and gene expression regulation. Translation of stress-related mRNAs upon (p)ppGpp accumulating is the focus of the investigation (indicated as the red question mark). (B) Schematics of instrumentation for measuring 30S initiation complex (IC) by fluorescence Microscale Thermophoresis (MST) (provided by Nanotemper Technologies). […] Fluorophore excitation and measurement of the emitted fluorescence, together with IR-mediated perturbation of the equilibrium, are achieved through an objective and dichroic mirror. (C) Time courses of fluorescence showing the equilibrium relaxation upon thermal perturbation at varying ligand concentrations. Blue vertical lines indicate the fluorescence signal readout prior to the equilibrium perturbation (Fi), while vertical red lines indicate the fluorescence signal upon reaching the new equilibrium (Ff). Colored traces represent different concentrations of the titrating mRNA (0.1 to 4 μM). The ratio between the Ff over Fi times 1,000 is the normalized thermophoresis shift (MST). The dependency of MST shift on ligand concentration allows to estimate KD constants of the interaction using a hyperbolic or quadratic function and nonlinear regression fitting. MST measurements (closed circles) are indicated in the same colors as their respective time traces in (C). (D) Formation of 30S IC measured by MST. Time traces of thermophoresis (S1 Fig) were used to calculate MST values for all four combinations of mRNA start codons and labeled tRNAs for dependencies on mRNA concentration. […] Closed symbols indicate that Bpy-Met-tRNA^fMet was used, while open symbols correspond to Bpy-Phe-tRNA^Phe. Continuous lines indicate nonlinear regression fittings. Three to four measurements were performed; mean and error bars representing standard deviations are plotted (S1 Data).
To monitor the interaction of initiator tRNA and 30S ribosomal subunits, we used Microscale Thermophoresis (MST) with a fluorescently labelled initiator tRNA (Bpy-tRNAi) (Fig 1B). MST allows to measure fluorescence in a constrained space. Changes on the readout derive from molecular drifts resulting from small thermal equilibrium perturbations. Upon equilibrium perturbations, the patterns of Bpy-tRNAi migration away from the observation space are related to bound and unbound states (Fig 1B). […] On the contrary, a decrease in thermophoresis indicated the dissociation of Bpy-tRNAi. The relation between fluorescence measured at both equilibriums (Ff to Fi, after and prior to the perturbation, respectively) as a function of ligand concentration allowed to determine dissociation constants of the interaction (Fig 1C).
By observing the bound state of Bpy-tRNAi to the 30S subunit, MST could be measuring either IC, 30S pre-IC, or 30S IC, as they are identical in terms of ligand composition. […] To unambiguously assign which step is monitored by MST, we used different combinations of start codons and fluorescent tRNAs.
MST was calculated from the respective fluorescence time dependencies (S3 Fig). […] Symbols as in (B). […] Continuous lines indicate nonlinear regression fittings with quadratic (B and E) or same-site competition (G) functions. Three measurements were performed; mean and standard deviations are plotted (S1 Data).

[1] = system: mRNA translation (protein synthesis); experiment: In vitro translation in pure cell-free system (PURExpress, Lumio labelling); type: biochemical
Method: Fig 5 Permissive ppGpp-mediated inhibition of mRNA translation. (A) Scheme of the translating 70S complex. (B) In vitro translation of mTufA and mInfA derivatives harboring a coding sequence for the Lumio labelling system (Experimental conditions and analysis). […] Synthetized proteins were fluorescently labelled and resolved by 20% SDS-PAGE. The resulting images were analyzed by pixel densitometry using ImageJ [37] to estimate translation efficiencies (TEs). […] (D) Comparison of inhibitory constants for both mRNAs as measured during 30S IC formation (white) or overall translation efficiency (gray). Mean and standard deviations from three measurements are plotted (S1 Data). GTP, guanosine triphosphate; mInfA, InfA mRNA; mTufA, TufA mRNA; TE, translation efficiency.
In order to visualize overall protein synthesis, we used a coupled transcription-translation cell-free system. Reactions were carried out in 10 μL of the purified components from the PURExpress In Vitro Protein Synthesis Kit (E6800S/L, NEB, Ipswich, Massachusetts) with the corresponding templates. These reactions were incubated at 37°C for 2 hours. […] After incubation, sample processing and fluorescent labelling were carried out as described by the Lumio Green Detection Kit (LC6090, ThermoScientific, Waltham, Massachusetts) for in vitro reactions. Finally, 20 μL of labelled samples were loaded into 20% SDS-PAGE gels and visualized under a Blue-light LED transilluminator with orange filter (Cleaver Scientific LTD, Warwickshire, UK). Gel quantification was performed by pixel densitometry analysis using ImageJ software.

[2] = Fig 3D, efficiency of 30S IC formation

B1: mTufA: TufA mRNA with full-length 5′ UTR, in vitro transcribed, codes for EF-Tu (nucleic acid)
chain: GGUUCUAUCGCCUUUAAAGAAGGCUUUAAGAAAGCGAAACCAGUUCUGCUUGAGCCGAUCAUGAAGGUUGAAGUAGAAACUCCGGAAGAGAACACCGGUGACGUUAUCGGUGACUUGAGCCGUCGUCGUGGUAUGCUCAAAGGUCAGGAAUCUGAAGUUACUGGCGUUAAGAUCCACGCUGAAGUACCGCUGUCUGAAAUGUUCGGAUACGCAACUCAGCUGCGUUCUCUGACCAAAGGUCGUGCAUCAUACACUAUGGAAUUCCUGAAGUAUGAUGAAGCGCCGAGUAACGUUGCUCAGGCCGUAAUUGAAGCCCGUGGUAAAUAAGCCUAAGGGUUAAUACCAAAGUCCCGUGCUCUCUCCUGAAGGGGAGAGCACUAUAGUAAGGAAUAUAGCCGUGUCUAAAGAAAAAUUUGAACG
30S subunit (30S IC); mRNA 0.004 μM
  MST Average: 969.58 a.u.
  MST Replicates (a.u.): 968.54 a.u. and 970.25 a.u. and 969.97 a.u.
30S subunit (30S IC); mRNA 0.008 μM
  MST Average: 969.59 a.u.
  MST Replicates (a.u.): 969.28 a.u. and 969.63 a.u. and 969.86 a.u.
30S subunit (30S IC); mRNA 0.016 μM
  MST Average: 972.78 a.u.
  MST Replicates (a.u.): 971.79 a.u. and 972.82 a.u. and 973.72 a.u.
30S subunit (30S IC); mRNA 0.03 μM
  MST Average: 974.49 a.u.
  MST Replicates (a.u.): 974.10 a.u. and 974.12 a.u. and 975.24 a.u.
30S subunit (30S IC); mRNA 0.06 μM
  MST Average: 982.70 a.u.
  MST Replicates (a.u.): 982.27 a.u. and 982.61 a.u. and 983.22 a.u.
30S subunit (30S IC); mRNA 0.13 μM
  MST Average: 997.76 a.u.
  MST Replicates (a.u.): 996.79 a.u. and 997.90 a.u. and 998.61 a.u.
30S subunit (30S IC); mRNA 0.25 μM
  MST Average: 1022.60 a.u.
  MST Replicates (a.u.): 1021.41 a.u. and 1022.36 a.u. and 1024.04 a.u.
30S subunit (30S IC); mRNA 0.50 μM
  MST Average: 1057.58 a.u.
  MST Replicates (a.u.): 1056.44 a.u. and 1057.96 a.u. and 1058.33 a.u.
30S subunit (30S IC); mRNA 1.00 μM
  MST Average: 1095.54 a.u.
  MST Replicates (a.u.): 1094.17 a.u. and 1095.62 a.u. and 1096.83 a.u.
30S subunit (30S IC); mRNA 2.00 μM
  MST Average: 1113.87 a.u.
  MST Replicates (a.u.): 1113.37 a.u. and 1113.82 a.u. and 1114.42 a.u.
30S subunit (30S IC); read-out: Kd (μM) of the mRNA, Average
  Kd: 0.19 µM
30S subunit (30S IC); read-out: Kd (μM) of the mRNA, single replicate
  Kd: 0.19 µM and 0.18 µM
30S subunit (30S IC); [2]
  MST Amplitude (a.u.), Average: 165.04 a.u.
  MST Amplitude (a.u.), single replicate: 165.44 a.u. and 164.97 a.u. and 164.70 a.u.
30S subunit (30S IC); mRNA 0.001 µM
  30S IC formation MST signal, Average: 934.16
  30S IC formation MST signal, replicates: 933.97 and 934.33 and 934.18
30S subunit (30S IC); mRNA 0.002 µM
  30S IC formation MST signal, Average: 931.08
  30S IC formation MST signal, replicates: 929.08 and 931.16 and 933.00
30S subunit (30S IC); mRNA 0.004 µM
  30S IC formation MST signal, Average: 929.10
  30S IC formation MST signal, replicates: 927.65 and 929.57 and 930.10
30S subunit (30S IC); mRNA 0.008 µM
  30S IC formation MST signal, Average: 927.54
  30S IC formation MST signal, replicates: 923.84 and 929.70 and 929.07
30S subunit (30S IC); mRNA 0.016 µM
  30S IC formation MST signal, Average: 926.63
  30S IC formation MST signal, replicates: 924.56 and 926.45 and 928.88
30S subunit (30S IC); mRNA 0.031 µM
  30S IC formation MST signal, Average: 928.44
  30S IC formation MST signal, replicates: 928.15 and 928.36 and 928.82
30S subunit (30S IC); mRNA 0.062 µM
  30S IC formation MST signal, Average: 934.74
  30S IC formation MST signal, replicates: 934.59 and 934.05 and 935.59
30S subunit (30S IC); mRNA 0.125 µM
  30S IC formation MST signal, Average: 947.53
  30S IC formation MST signal, replicates: 949.07 and 946.54 and 946.98
30S subunit (30S IC); mRNA 0.25 µM
  30S IC formation MST signal, Average: 962.80
  30S IC formation MST signal, replicates: 964.74 and 961.64 and 962.03
30S subunit (30S IC); mRNA 0.5 µM
  30S IC formation MST signal, Average: 989.99
  30S IC formation MST signal, replicates: 993.30 and 987.37 and 989.30
30S subunit (30S IC); mRNA 1 µM
  30S IC formation MST signal, Average: 1011.86
  30S IC formation MST signal, replicates: 1011.95 and 1011.22 and 1012.39
30S subunit (30S IC); mRNA 2 µM
  30S IC formation MST signal, Average: 1036.12
  30S IC formation MST signal, replicates: 1039.43 and 1034.52 and 1034.41
[1]; 2 mM ppGpp, Fig 6G
  Translation Avg: 0.27 a.u.
[1]; No ppGpp, Fig 6G
  Translation Avg: 0.83 a.u.
  Translation Replicate: 0.83 a.u.
[1]; in the absence of ppGpp
  translation higher than mInfA: 3 fold

Reference: publication PMC7010297, “How the initiating ribosome copes with ppGpp to translate mRNAs” (PLoS Biology, 2020)
